# T1: His:Smurf protein (full length Drosophila Smurf) (Drosophila, UniProt Q9V853 1-1061)
# T1 construct: Smurf E3 ligase, Drosophila, full length; Vector pET28a; also called Smurf in pET28a; source: E. coli, purified (Ni Sepharose)
# T1 sequence (looked up): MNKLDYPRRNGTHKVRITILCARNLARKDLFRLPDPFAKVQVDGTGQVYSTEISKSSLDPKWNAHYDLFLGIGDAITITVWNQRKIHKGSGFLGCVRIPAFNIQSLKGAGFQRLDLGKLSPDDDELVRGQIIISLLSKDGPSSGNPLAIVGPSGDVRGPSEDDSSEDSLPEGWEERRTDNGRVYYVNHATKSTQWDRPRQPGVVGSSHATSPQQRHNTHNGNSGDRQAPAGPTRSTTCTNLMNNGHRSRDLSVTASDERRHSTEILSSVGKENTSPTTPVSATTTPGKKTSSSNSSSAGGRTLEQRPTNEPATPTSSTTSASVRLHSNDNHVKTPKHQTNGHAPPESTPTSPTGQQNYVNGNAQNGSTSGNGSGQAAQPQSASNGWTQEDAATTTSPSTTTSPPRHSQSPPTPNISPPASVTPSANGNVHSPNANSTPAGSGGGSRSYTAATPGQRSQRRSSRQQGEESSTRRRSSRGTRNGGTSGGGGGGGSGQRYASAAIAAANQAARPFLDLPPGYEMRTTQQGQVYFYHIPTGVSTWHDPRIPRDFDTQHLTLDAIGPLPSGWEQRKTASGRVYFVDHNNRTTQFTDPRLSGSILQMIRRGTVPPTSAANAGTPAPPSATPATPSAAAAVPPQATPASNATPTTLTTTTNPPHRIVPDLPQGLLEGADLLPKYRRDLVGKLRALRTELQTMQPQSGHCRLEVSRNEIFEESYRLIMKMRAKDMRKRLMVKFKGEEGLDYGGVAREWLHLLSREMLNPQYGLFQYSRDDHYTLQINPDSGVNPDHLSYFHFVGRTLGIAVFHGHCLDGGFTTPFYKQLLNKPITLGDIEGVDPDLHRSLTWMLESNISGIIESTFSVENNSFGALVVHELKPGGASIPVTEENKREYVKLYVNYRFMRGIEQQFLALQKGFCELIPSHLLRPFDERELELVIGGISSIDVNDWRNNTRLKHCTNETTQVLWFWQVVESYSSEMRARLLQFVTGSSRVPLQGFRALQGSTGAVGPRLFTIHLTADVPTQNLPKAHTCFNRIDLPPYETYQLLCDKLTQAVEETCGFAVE
# What was measured:
# [1] = target: the molecule itself; assay: native gel or EMSA; lysates of S2 cells transfected for 48 h; native polyacrylamide gel and Western blot
# [2] = target: T1, His:Smurf protein (full length …); assay: pull-down; GST fusion protein loaded glutathione beads incubated with 200 ng purified His:Smurf; 50 mM Tris-Cl pH 8.0, 200 mM NaCl, 1 mM EDTA, 1% NP-40, 2% BSA, 10 mM DTT, 1 mM PMSF; 4°C, 1 h; Western blot; settings: both partners purified
binding result [2],Binder,stoichiometry N [1]
–,"Ptc^CTD (C-terminal tail of Ptc) expressed in S2 cells (domain or fragment, Drosophila, UniProt P18502 1101-1286, looked up, Patched (Ptc), Drosophila, C-terminal tail; also called C-tail of Ptc; Ptc C-tail; source: S2 cells, transfected, in lysate) ILLSMVGPEAELVPLEHPDRISTPSPLPVRSSKRSGKSYVVQGSRSSRGSCQKSHHHHHKDLNDPSLTTITEEPQSWKSSNSSIQMPNDWTYQPREQRPASYAAPPPAYHKAAAQQHHQHQGPPTTPPPPFPTAYPPELQSIVVQPEVTVETTHSDSNTTKVTATANIKVELAMPGRAVRSYNFTS",3
binds,"GST:Flag:Ptc^CTD fusion protein (domain or fragment, Drosophila, UniProt P18502 1101-1286, looked up, Patched (Ptc), Drosophila, C-terminal domain, residues 1101-1286; Vector pGEX4T-1; also called Flag tagged Ptc^CTD (1101-1286 a.a) in pGEX4T-1; source: E. coli, purified (glutathione agarose beads, batch)) ILLSMVGPEAELVPLEHPDRISTPSPLPVRSSKRSGKSYVVQGSRSSRGSCQKSHHHHHKDLNDPSLTTITEEPQSWKSSNSSIQMPNDWTYQPREQRPASYAAPPPAYHKAAAQQHHQHQGPPTTPPPPFPTAYPPELQSIVVQPEVTVETTHSDSNTTKVTATANIKVELAMPGRAVRSYNFTS",–
–,"Ptc^CTD with the K1261R mutation, in S2 cells (domain or fragment, Drosophila, UniProt P18502 1101-1286, looked up, Patched (Ptc), Drosophila, C-terminal domain with K1261R; source: S2 cells, transfected, in lysate) ILLSMVGPEAELVPLEHPDRISTPSPLPVRSSKRSGKSYVVQGSRSSRGSCQKSHHHHHKDLNDPSLTTITEEPQSWKSSNSSIQMPNDWTYQPREQRPASYAAPPPAYHKAAAQQHHQHQGPPTTPPPPFPTAYPPELQSIVVQPEVTVETTHSDSNTTRVTATANIKVELAMPGRAVRSYNFTS",3

# Source: paper PMC3841102, “Activation of Smurf E3 Ligase Promoted by Smoothened Regulates Hedgehog Signaling through Targeting Patched Turnover” (PLoS Biology, 2013)
